Measured values taken from patent US20210395394A1.

Each binder was assayed against Pan-species-specific antigen Plasmodium Lactate DeHydrogenase (Pan-PLDH) protein (assay: indirect ELISA at four coating concentrations, KD calculated from half-maximal OD).

| Kd | Binder |
| --- | --- |
| 0.329 nM | Mutation 1-19 (antibody, mouse IgG2b, kappa, V domains shown) VH: QVQLQQPGAELVRPGASVKLSCKASGYSFTNYWMNWVKQRPGQGLEWIGMIHPSDSETRLNQKFKDKATLTVDKSSSTAYMQLSSLTAEDSAVYYCARSGDFYTYYFDYWGQGTTLTVSS VL: DIQLTQSPASLSASVGETVTITCRGSGNIHNYLAWYQQKQGKSPQLLVYNAKTLADGVPSRFSGSGSGTQYSLKINSLQPEDFGSYYCQYFWSTYTFGGGTKLEIKR |
| 0.204 nM | Mutation 1-20 (antibody, mouse IgG2b, kappa, V domains shown) VH: QVQLQQPGAELVRPGASVKLSCKASGSSFTNYWMNWVKQRPGQGLEWIGMIHPSDSETRVNQKFKDKATLTVDKSSSTAYMQLSSLTAEDSAVYYCARSGDFYTTYFDYWGQGTTLTVSS VL: DIQLTQSPASLSASVGETVTITCRGTGNVHNYLAWYQQKQGKSPQLLVYNAKTVADGVPSRFSGSGSGTQYSLKINSLQPEDFGSYYCQTFWSTYTFGGGTKLEIKR |
| 0.759 nM | Mutation 1-28 (antibody, mouse IgG2b, kappa, V domains shown) VH: QVQLQQPGAELVRPGASVKLSCKASGTSFTNYWMNWVKQRPGQGLEWIGMIHPSESETRLNQKFKDKATLTVDKSSSTAYMQLSSLTAEDSAVYYCAKSGEFYTYYFDYWGQGTTLTVSS VL: DIQLTQSPASLSASVGETVTITCRGSGNIHNYLAWYQQKQGKSPQLLVYNARTIADGVPSRFSGSGSGTQYSLKINSLQPEDFGSYYCQYFWSTYTFGGGTKLEIKR |
| 0.402 nM | Mutation 1-24 (antibody, mouse IgG2b, kappa, V domains shown) VH: QVQLQQPGAELVRPGASVKLSCKASGSSFTNYWMNWVKQRPGQGLEWIGMIHPSDSETRINQKFKDKATLTVDKSSSTAYMQLSSLTAEDSAVYYCAKSGDFYTSYFDYWGQGTTLTVSS VL: DIQLTQSPASLSASVGETVTITCRGSGNLHNYLAWYQQKQGKSPQLLVYNAKTLADGVPSRFSGSGSGTQYSLKINSLQPEDFGSYYCQTFWSTYTFGGGTKLEIKR |
| 0.427 nM | Mutation 1-27 (antibody, mouse IgG2b, kappa, V domains shown) VH: QVQLQQPGAELVRPGASVKLSCKASGYSFTNYWMNWVKQRPGQGLEWIGMIHPSESETRINQKFKDKATLTVDKSSSTAYMQLSSLTAEDSAVYYCAKSGEFYTSYFDYWGQGTTLTVSS VL: DIQLTQSPASLSASVGETVTITCRGTGNVHNYLAWYQQKQGKSPQLLVYNARTLADGVPSRFSGSGSGTQYSLKINSLQPEDFGSYYCQSFWSTYTFGGGTKLEIKR |
| 0.52 nM | Mutation 1-37 (antibody, mouse IgG2b, kappa, V domains shown) VH: QVQLQQPGAELVRPGASVKLSCKASGSSFTNYWMNWVKQRPGQGLEWIGMIHPSDSETRLNQKFKDKATLTVDKSSSTAYMQLSSLTAEDSAVYYCAKSGDFYTYYFDYWGQGTTLTVSS VL: DIQLTQSPASLSASVGETVTITCRGTGNLHNYLAWYQQKQGKSPQLLVYNAKTIADGVPSRFSGSGSGTQYSLKINSLQPEDFGSYYCQYFWSTYTFGGGTKLEIKR |
| 0.655 nM | Mutation 1-21 (antibody, mouse IgG2b, kappa, V domains shown) VH: QVQLQQPGAELVRPGASVKLSCKASGTSFTNYWMNWVKQRPGQGLEWIGMIHPSESETRINQKFKDKATLTVDKSSSTAYMQLSSLTAEDSAVYYCARSGEFYTSYFDYWGQGTTLTVSS VL: DIQLTQSPASLSASVGETVTITCRGSGNVHNYLAWYQQKQGKSPQLLVYNARTIADGVPSRFSGSGSGTQYSLKINSLQPEDFGSYYCQYFWSTYTFGGGTKLEIKR |
| 0.329 nM | Mutation 1-32 (antibody, mouse IgG2b, kappa, V domains shown) VH: QVQLQQPGAELVRPGASVKLSCKASGTSFTNYWMNWVKQRPGQGLEWIGMIHPSDSETRVNQKFKDKATLTVDKSSSTAYMQLSSLTAEDSAVYYCARSGDFYTTYFDYWGQGTTLTVSS VL: DIQLTQSPASLSASVGETVTITCRGTGNVHNYLAWYQQKQGKSPQLLVYNAKTIADGVPSRFSGSGSGTQYSLKINSLQPEDFGSYYCQSFWSTYTFGGGTKLEIKR |
| 0.411 nM | Mutation 1-29 (antibody, mouse IgG2b, kappa, V domains shown) VH: QVQLQQPGAELVRPGASVKLSCKASGSSFTNYWMNWVKQRPGQGLEWIGMIHPSESETRVNQKFKDKATLTVDKSSSTAYMQLSSLTAEDSAVYYCAKSGEFYTTYFDYWGQGTTLTVSS VL: DIQLTQSPASLSASVGETVTITCRGTGNIHNYLAWYQQKQGKSPQLLVYNARTVADGVPSRFSGSGSGTQYSLKINSLQPEDFGSYYCQTFWSTYTFGGGTKLEIKR |
| 0.439 nM | Mutation 1-40 (antibody, mouse IgG2b, kappa, V domains shown) VH: QVQLQQPGAELVRPGASVKLSCKASGTSFTNYWMNWVKQRPGQGLEWIGMIHPSESETRLNQKFKDKATLTVDKSSSTAYMQLSSLTAEDSAVYYCAKSGEFYTYYFDYWGQGTTLTVSS VL: DIQLTQSPASLSASVGETVTITCRGSGNIHNYLAWYQQKQGKSPQLLVYNARTIADGVPSRFSGSGSGTQYSLKINSLQPEDFGSYYCQTFWSTYTFGGGTKLEIKR |
| 0.319 nM | Mutation 1-23 (antibody, mouse IgG2b, kappa, V domains shown) VH: QVQLQQPGAELVRPGASVKLSCKASGYSFTNYWMNWVKQRPGQGLEWIGMIHPSESETRVNQKFKDKATLTVDKSSSTAYMQLSSLTAEDSAVYYCARSGEFYTTYFDYWGQGTTLTVSS VL: DIQLTQSPASLSASVGETVTITCRGSGNLHNYLAWYQQKQGKSPQLLVYNARTVADGVPSRFSGSGSGTQYSLKINSLQPEDFGSYYCQSFWSTYTFGGGTKLEIKR |
| 0.565 nM | Mutation 1-34 (antibody, mouse IgG2b, kappa, V domains shown) VH: QVQLQQPGAELVRPGASVKLSCKASGYSFTNYWMNWVKQRPGQGLEWIGMIHPSESETRLNQKFKDKATLTVDKSSSTAYMQLSSLTAEDSAVYYCARSGEFYTYYFDYWGQGTTLTVSS VL: DIQLTQSPASLSASVGETVTITCRGTGNLHNYLAWYQQKQGKSPQLLVYNARTVADGVPSRFSGSGSGTQYSLKINSLQPEDFGSYYCQSFWSTYTFGGGTKLEIKR |
| 0.198 nM | Mutation 1-30 (antibody, mouse IgG2b, kappa, V domains shown) VH: QVQLQQPGAELVRPGASVKLSCKASGSSFTNYWMNWVKQRPGQGLEWIGMIHPSDSETRINQKFKDKATLTVDKSSSTAYMQLSSLTAEDSAVYYCARSGDFYTSYFDYWGQGTTLTVSS VL: DIQLTQSPASLSASVGETVTITCRGTGNIHNYLAWYQQKQGKSPQLLVYNAKTLADGVPSRFSGSGSGTQYSLKINSLQPEDFGSYYCQYFWSTYTFGGGTKLEIKR |
| 0.493 nM | Mutation 1-25 (antibody, mouse IgG2b, kappa, V domains shown) VH: QVQLQQPGAELVRPGASVKLSCKASGTSFTNYWMNWVKQRPGQGLEWIGMIHPSDSETRLNQKFKDKATLTVDKSSSTAYMQLSSLTAEDSAVYYCAKSGDFYTYYFDYWGQGTTLTVSS VL: DIQLTQSPASLSASVGETVTITCRGTGNLHNYLAWYQQKQGKSPQLLVYNAKTIADGVPSRFSGSGSGTQYSLKINSLQPEDFGSYYCQSFWSTYTFGGGTKLEIKR |
| 0.518 nM | Mutation 1-36 (antibody, mouse IgG2b, kappa, V domains shown) VH: QVQLQQPGAELVRPGASVKLSCKASGTSFTNYWMNWVKQRPGQGLEWIGMIHPSDSETRINQKFKDKATLTVDKSSSTAYMQLSSLTAEDSAVYYCAKSGDFYTSYFDYWGQGTTLTVSS VL: DIQLTQSPASLSASVGETVTITCRGSGNLHNYLAWYQQKQGKSPQLLVYNAKTVADGVPSRFSGSGSGTQYSLKINSLQPEDFGSYYCQSFWSTYTFGGGTKLEIKR |
| 0.55 nM | Mutation 1-39 (antibody, mouse IgG2b, kappa, V domains shown) VH: QVQLQQPGAELVRPGASVKLSCKASGSSFTNYWMNWVKQRPGQGLEWIGMIHPSESETRINQKFKDKATLTVDKSSSTAYMQLSSLTAEDSAVYYCAKSGEFYTSYFDYWGQGTTLTVSS VL: DIQLTQSPASLSASVGETVTITCRGTGNVHNYLAWYQQKQGKSPQLLVYNARTVADGVPSRFSGSGSGTQYSLKINSLQPEDFGSYYCQYFWSTYTFGGGTKLEIKR |
| 0.613 nM | Mutation 1-38 (antibody, mouse IgG2b, kappa, V domains shown) VH: QVQLQQPGAELVRPGASVKLSCKASGYSFTNYWMNWVKQRPGQGLEWIGMIHPSDSETRVNQKFKDKATLTVDKSSSTAYMQLSSLTAEDSAVYYCAKSGDFYTTYFDYWGQGTTLTVSS VL: DIQLTQSPASLSASVGETVTITCRGSGNVHNYLAWYQQKQGKSPQLLVYNAKTLADGVPSRFSGSGSGTQYSLKINSLQPEDFGSYYCQTFWSTYTFGGGTKLEIKR |
| 0.374 nM | Mutation 1-26 (antibody, mouse IgG2b, kappa, V domains shown) VH: QVQLQQPGAELVRPGASVKLSCKASGYSFTNYWMNWVKQRPGQGLEWIGMIHPSDSETRVNQKFKDKATLTVDKSSSTAYMQLSSLTAEDSAVYYCAKSGDFYTTYFDYWGQGTTLTVSS VL: DIQLTQSPASLSASVGETVTITCRGSGNVHNYLAWYQQKQGKSPQLLVYNAKTVADGVPSRFSGSGSGTQYSLKINSLQPEDFGSYYCQYFWSTYTFGGGTKLEIKR |
| 0.514 nM | Mutation 1-31 (antibody, mouse IgG2b, kappa, V domains shown) VH: QVQLQQPGAELVRPGASVKLSCKASGYSFTNYWMNWVKQRPGQGLEWIGMIHPSDSETRLNQKFKDKATLTVDKSSSTAYMQLSSLTAEDSAVYYCARSGDFYTYYFDYWGQGTTLTVSS VL: DIQLTQSPASLSASVGETVTITCRGSGNIHNYLAWYQQKQGKSPQLLVYNAKTVADGVPSRFSGSGSGTQYSLKINSLQPEDFGSYYCQTFWSTYTFGGGTKLEIKR |
| 0.378 nM | Mutation 1-22 (antibody, mouse IgG2b, kappa, V domains shown) VH: QVQLQQPGAELVRPGASVKLSCKASGSSFTNYWMNWVKQRPGQGLEWIGMIHPSESETRLNQKFKDKATLTVDKSSSTAYMQLSSLTAEDSAVYYCARSGEFYTYYFDYWGQGTTLTVSS VL: DIQLTQSPASLSASVGETVTITCRGTGNLHNYLAWYQQKQGKSPQLLVYNARTLADGVPSRFSGSGSGTQYSLKINSLQPEDFGSYYCQTFWSTYTFGGGTKLEIKR |
| 0.372 nM | Mutation 1-33 (antibody, mouse IgG2b, kappa, V domains shown) VH: QVQLQQPGAELVRPGASVKLSCKASGTSFTNYWMNWVKQRPGQGLEWIGMIHPSESETRINQKFKDKATLTVDKSSSTAYMQLSSLTAEDSAVYYCARSGEFYTSYFDYWGQGTTLTVSS VL: DIQLTQSPASLSASVGETVTITCRGSGNVHNYLAWYQQKQGKSPQLLVYNARTLADGVPSRFSGSGSGTQYSLKINSLQPEDFGSYYCQTFWSTYTFGGGTKLEIKR |
| 0.424 nM | Mutation 1-35 (antibody, mouse IgG2b, kappa, V domains shown) VH: QVQLQQPGAELVRPGASVKLSCKASGSSFTNYWMNWVKQRPGQGLEWIGMIHPSESETRVNQKFKDKATLTVDKSSSTAYMQLSSLTAEDSAVYYCARSGEFYTTYFDYWGQGTTLTVSS VL: DIQLTQSPASLSASVGETVTITCRGSGNLHNYLAWYQQKQGKSPQLLVYNARTIADGVPSRFSGSGSGTQYSLKINSLQPEDFGSYYCQYFWSTYTFGGGTKLEIKR |
